Data on 41 sequences can be found in the nanobody polyreactivity screen of Harvey et al. (2022).

The data set can be described thus: yeast display, Sf9 membrane polyspecificity reagent, FACS + sequencing; frameworks hold sequencing errors. A digest of the protocol: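 Synthetic nanobody libraries on Saccharomyces cerevisiae BJ5465 were galactose-induced for 36–48 hours, stained 1 hour at 4 °C with 10% biotinylated, detergent-solubilized Sf9 membrane reagent and enriched on streptavidin microbeads. FACS then separated cells into low and high (top ~1%) gates by anti-HA (expression) and streptavidin (reagent binding) fluorescence. Genes were colony-PCR amplified, MiSeq 2 × 250 sequenced and CDR-length filtered. A clone's polyreactivity label is that of its gate of origin.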
For “HVQLVESGGGLVQAGGSLRLSCAASGSTFILNTMGWYIQAPGKERKLVAAITRRGSSTYYADSVKGRFTISRDNAKNTGYLQMNSLKPEDTAVYFCAAFSYNLGMDYWGQGTKVTVSS”, the “polyreactivity (PSR sort gate)” value is reported as “high polyreactivity”. Then “QVQLVESGGGLVQAGGSLRLSCAASGTIFLANAMGWYRQAPEKERELVAAINSGDNSYYADSVKGRFTISRDNAKITVYLQINSLKPEDTAVYYCAAEYTGYFYAYEYWGQGSQVTVSS”, with “high polyreactivity”. On to “QVQLVESGGGLVQAGGRLRLSCAASGRIFSYNAMGWYRQAPGKERELVAGITSGGRTYYADSVKGRFTISRDNAKNTVYLQMNSLKPEDTAVYYCAARYVPARTRYYYWGQGTQVTVSS”, for which the “polyreactivity (PSR sort gate)” value is “high polyreactivity”. Then “QVQLVESGGGLVQAGGSLRISCAPSGITLRRNAMGRYRQAPGKERELVARISTTGGSTYYADSVKGRFTISRDNAKNTVYLQMNSLKPEDTAVYYCAARAPLGFWHYDYWGQGTQVTVSS”, with “high polyreactivity”; and “QVQLVESGGGLVQAGGSLRLSCAASGFIFRYNAMGWYRQAPGKERELVAAISSGGSTNYADSVKGRFTISRDNAKNTVYLQMNSLKPEDTAVYYCAADVEQYYPLLTFDFWGQGTQVTVSS”, with “low polyreactivity”. As to “QVQLVESAGGLVQAGGSLRLSCAASGSIFGPYAMGWYRQAPGKERELVAVISSGDSTNYADSVKGRFTISRDNAKNTVYLQMNSLKPEDTAVYYCATRYLLYRGGHTLFYHFDYWGLGTQVTVSS”, the “polyreactivity (PSR sort gate)” value was “low polyreactivity”.

Consider “QVQLVESGGGLVQAGGSLRLSCAASGGTFGVYAMGWYRQAPGKERELVAAIDWDDGNTYYADSVKGRFTLSRDNAKNTVYLQMNSLKPEDTAVYYCAAVVFSRRYWVKFYYWGQGTQVTVSS”, for which the “polyreactivity (PSR sort gate)” value is listed as “high polyreactivity”.

In the case of “QVQLVESGGGLVQAGGSLRLSCAASGRTFPYYAMGWYRQAPGKERELVAAISSSGGRTYYADSVKGRFTISRDNAKNTVYLQMISLKPEDSAVYDCNVDAWYPYQGFLVGYYYWGQGTQVTVSS”, the “polyreactivity (PSR sort gate)” value was “low polyreactivity”.

As to “QVQLVESGGGLVQAGGSLRLSCAASGYTFYVYAMGCYRQAPGKERELVASITSSTSTKYADSVKGRFTISRDNANNTVYLQMNSLKPEDTAVYYCAADSRVPEYRSPKNDYWGQGTQVTVSS”, the “polyreactivity (PSR sort gate)” value was “low polyreactivity”. For “QVQLVESGGGLVQAGGSLRLSCAASGRTFRNNAMGWYRQAPGKERELVAAISSRGGSTYYADSVKGRFTISRDNAKNTVYLQMNSLKPEDTAVYYCADDHSRYGDYWGQGTQVTVSS”, the “polyreactivity (PSR sort gate)” value is reported as “high polyreactivity”. Then “QVQLVESGGRLVQAGGSLRLSCAASGRTFSTNVMGRYRQAPGKVRELVAAITTSSSRTYYADSVKGRFTISRDNAKNTVYLQMNSLKPEDTAVYYCAAGIHGSWSFDYWGQGTQVTLSS”, with “low polyreactivity”. Take “QVQLVESGGGLVQAGGSLRLSCAASGRIFQKNTMGWYRQAPGKERELVAAINWNGGRTYYADSVKGRFTISRDNAKNTVYLQMNSLKPEDTAVYYCAKDGYWDFDYWGQGTQVTVSS”: the “polyreactivity (PSR sort gate)” value is given as “low polyreactivity”. Take “QVQLVESGGGLVQAGGSLRLSCAASGNTFKGYAMGWYRQAPGKERELVAAISWSGSSTYYADSVKGRFTISRDYAKNTVYLQMNILKPEDTAVYYCNRKYLGRYASVYGYGYWGQGTQVTVSS”: the “polyreactivity (PSR sort gate)” value was “high polyreactivity”.

For the sequence “QVQLVESGGGLVQAGGSLRLSCAASGSIFERYALGWYSQAPGKEREMVAAITWTGGRTYYADSVKGRFTISRDIAKNTVYLQMNSLKPEDTAVYYCARSYTRRGYDYWGLGTQVTVSS”, the “polyreactivity (PSR sort gate)” value is “high polyreactivity”. As to “QVQLVESGGGLVQAGGSLRLSCAASGRTFGVNAMGWYRQAPGKEREFVAAISRSTGSTYYADSVKGRFTISRDNAKNTVYLQMNSLKPEDTAVYYCAVKGASYPAYRGYDYWGQGTQVTVSS”, the “polyreactivity (PSR sort gate)” value is given as “high polyreactivity”. Take “QVQLVESGGGLVQAGGSLRLSCAASGRIFTRYAMGWYRQAPGKERELVAAINYRGSSTYYADSVKGRFTISRDNAKNTVYLQMNSLKPEDTAVYYCNTYGQTDTYWRYYYWGQGTQVTVSS”: the “polyreactivity (PSR sort gate)” value was “high polyreactivity”.

For “QVQLVESVGGLVQAGGSLRLSCAASGSTFGINAMGWYRQAPGKERELVASITRRGGSTYYADSVKGRFTISRDNAKNTVYLQMNSLKPEDTAVYYCNKTYRYGTPLYDYWGQGTQVTVSS”, the “polyreactivity (PSR sort gate)” value is listed as “high polyreactivity”.

Turning to “QVQLVESGGGLVQAGGSLRLSCAASGFSLRNNAMGWYRPAPGKERELVAGITSGGRTNYADSVKGRFTISRDNAKNTVYLQMNSLKPEHTAVYYCAKRVWPRDQYGKRNPRMDYWGQGTLVTVSS”, the “polyreactivity (PSR sort gate)” value was “high polyreactivity”. “QVQLVESGGGLVQAGGSLRLSCAPSGFTFSPYTMGWYRQAPGKETELVATIRYDGTSTYYADSVKGRFTISRDNAKNTVYLQMNSLKPEDTAVYYCNADGSAQDIAELDYWGQGTQVTVSS”: the “polyreactivity (PSR sort gate)” value was “low polyreactivity”. On to “KVQLVESGGGLDQAGGSLRLSCAASGIIFAYNVMGRYRQAPGKERELVAAIRWGGGSTYADSVKGRFSISRDNAKNTVYLQMTRLKPEDTAVYYCNVERWWWSRTYCVKYDYWGQGTQVNVSS”, for which the “polyreactivity (PSR sort gate)” value is reported as “high polyreactivity”. Consider “QVQLVESGGGLVQAGGSLRLSCAASGSIFTRYAMGWYRQAPGKERELVAAISSGGSTYYADSVKGRFTISRDNAKNTVYLQMNSLKPEDTAVYYCAKDSGSYRVGIYEPFPYGYWGQGTQVTVSS”, for which the “polyreactivity (PSR sort gate)” value is “low polyreactivity”. Then “QVQLVESGGGLVQAGGSLRLSCADSGFILDYNTMGWYRQAPGKERELVAAISSSGDTTYYADSVKGRFTISRDNAKNTVYLQMNSLKPEDTAVYYCAREYGDGYEYWGQGTQVTVSS”, with “low polyreactivity”; and “QVQLQESGGGLVQAGGSLRLSCSASGYISHADEMGWYRQAPGKEHELVASISNGGSTNYADSVKGRFTISRDNAKNTVYLQMNSLKSEDTAVYYCAAWTGQVDIHYYWGQGTQVTVSS”, with “low polyreactivity”; and “QVQLVESGGGLVQAGGSLRLSCAASGSTSVVNTMGWYRQAPGKERELVAAISWSGGSTYYADSVKGRFTISRDNAKNTVYLQMNSLKPEDTAVYYCNAQRNFKSITEYDYWGQGTQVTVSS”, with “high polyreactivity”. “QVQLVESGGGLVQAGGSLRLSCAASGRTFVPNAMGWYRQAPGKERELVAAISWSGDSTYYADSVKGRFTISRDNAKNTVYLQMNSLKPEDTAVYYCAARYEFFYKAFDVDSWGQGTQVTVSS”: the “polyreactivity (PSR sort gate)” value is “low polyreactivity”.

For “QVQLVESGGGLVQAGGSLRLSCAASGRIFSEYAMGWYRQAPGKERELVAAISGTGGRTYYADSVKGRFTISRDNAKNTVYLQMNSLKPEDTAVYYCAARTGQGPLYNHWGQGTQVTVSS”, the “polyreactivity (PSR sort gate)” value is recorded as “high polyreactivity”. “QVQLEESGGGLVQAGGSLRLSCAASGFTFRYYAMGWYRQAPGKERELVASISSSGGSTNYADSVKGRFTISRDNAKNTVYLQMNSLKPEDTAVYYCAVPPYTWLYDYWGQGTQVTVSS”: the “polyreactivity (PSR sort gate)” value is listed as “high polyreactivity”. “QVQLVESGGGLVQAGGSLRLSCAASGFTFTTYVMGSYRQAPGKERELVAAISRRGTSTRYADSVKGRFTISRDNAKNTVYLQMNSLKPEDTAVYYCAADRPYSIVPYDYWGQGTQVTVSS”: the “polyreactivity (PSR sort gate)” value is recorded as “high polyreactivity”.

For “QVQLVESGGGLVQAGGSLRLSCAASGFTFAGNARGWDRQSPGKERELVAAITSGGSTYYADSVKGRFTMSRDKAKNTVYLQMNSLKPEDTAVYYCAALVFRGRSFTHDYWGQGTQVTVSS”, the “polyreactivity (PSR sort gate)” value is on record as “high polyreactivity”. Under “QVQLVESGGGLVQAGGSLRLSCAASGSIFRYYGMGWSRQAPGKERELVAAITWRGSSTYYADSVKGRFTISRDNAKNSVYLQMNSLNPEDTAVYYCAAYSASYGGYDYWGQGTQVTVSS” stands “high polyreactivity”; under “QVQLVESGGGLVQAGGSLRLSCAASGFIFRLYAMGWYRQAPGKERELVAAISTGGGRTYYADSVKGRFTFSGDNAKNTVYLQMNSLKPEDTADYDCNTLVEPHYDYWGQGTQVTVSS”, “high polyreactivity”; under “QVQLVESGGGLVQAGGSLRLSCAASGITFNHYTMGWYRQAPGKERELVAAISSRGSTTYYADSVKGRFTISRDNAKNTVYLQMNSLKPEDTAVYYCAARYPTYYRPRYRGRPGYDYWGKGTQVTVSS”, “high polyreactivity”. For “QVQLVESGGGLVQAGGSLRLSCAASGNIFESYGMGWYRQAPGKERELVATINTSSGSTYYADSVKGRFTISRDNAKNSVYVQMNSLKPEDTAVYYCAAEWYPYPWGYGYWGQGTQVTVSS”, the “polyreactivity (PSR sort gate)” value is on record as “low polyreactivity”. For the sequence “QVQLVESGGGLVQAGGSLRLSCAASGSIFYINAMGWYRQAPGKERELVAAINRGGSTNYADSVKGRFTISRDNAKNTVYLQMYSLKPEDTAVYYCAAYIYKTYRYYYWGQGTQVTVSS”, the “polyreactivity (PSR sort gate)” value is “high polyreactivity”.

“QVQLVESGGGLVQAGGSLRLSCAASGIIFGDNAMGWYRQAPGKERELVAAIDSGGSTYYADSVKGRFTISRDNAKNTVYLQMNSLKPEDTAVYYCNAVTAFGYSYGGWDYDQYNYWGQGTQVTVSS”: the “polyreactivity (PSR sort gate)” value is on record as “low polyreactivity”. Under “QVQLVESGGGLVQAGGSLRLSCAASGRIFAPNAMGWYRQAPGKEREFVASIRWNGGSTYYADSVKGRFTISRDNAKNTVYLQMNSLKPADTAVYYCAARGWGYRRNYVYAWYDYWGQGTQVTVSS” stands “high polyreactivity”; under “QVQLVESGGGLVQAGGSLRLSFAASGSTFPKYAMRGYRPAPGKQRELVASISVTTGSTNYADSEKGRFTISRDNAKNTVYLQMNSLKPEDTAVYYCAADTVYRTHHYAQHYYYWGQGTLVTVSS”, “high polyreactivity”. Turning to “QVQLVESGGGLFQAGGSLRLSCAASGSISIKNAMGWYRQAPGKERELVATITYNGGSTYYADSVKGRFTISRDNAKNTVYLQMNSLKPEDTAVYYCARDAFEPYDVGEYYYWGQGTQVTVSS”, the “polyreactivity (PSR sort gate)” value was “low polyreactivity”.

As for “QVQLVESGGGLVQAGGSLRLSCAASGSTFGYYAMGWYRQAPGKERELVATMSATGGSTYYADSVKGRFTISRDKAKNTVYLQMNSLKPEDTAVYYCNAEYDRGNEYDYWGQGTQVTVSS”, the “polyreactivity (PSR sort gate)” value is recorded as “low polyreactivity”. On to “QVQLVESGGGLVQAGGSLRLSCAAYGITFTPNAMGWYRQAPGKEREFVAAITYSGGSTYYADSVKGRFTISRDNAKNTVYLQMNSLKPEDTAVYYCAAVYYLLYYEAYYYWGQGTQVTVSS”, for which the “polyreactivity (PSR sort gate)” value is given as “low polyreactivity”.

Regarding “QVQLVESGGGLVQAGGSLRLSCAASGSIFLYYTMGWYRQAPGKEREMVAAITSGSSTNYADSVKGRFTISRDNAKNTVYLQMNSLKPEDTAVYYCATQYTLSYPSIDFDYWGQGTQVNVSS”, the “polyreactivity (PSR sort gate)” value is “low polyreactivity”.
